Data on one molecule can be found in PMC10089224 (2023).

The Ki is a dissociation constant, usually derived from enzyme kinetics or from competition with a known ligand.

Bridges are numbered along the chain shown (N, C = ends). Where no end group is shown, it is not given here. [ ]: non-standard residue; d: D form.

Experiment [1] concerns the target T1, CPI1 (synthetic construct, thioether N-17).
T1 chain: {CH2CO}-[dY]FWGNLHWYYEQFDSTC
Briefly: ATPase activity inhibition assay (NADH-coupled), no LTC4.

Experiment [2] concerns the target T2, CPI1 (synthetic construct, thioether N-17).
T2 chain: {CH2CO}-[dY]FWGNLHWYYEQFDSTC
The experiment is described as follows: ATPase activity inhibition assay (NADH-coupled), with 3.5 µM LTC4.

B1: MRP1 (bMRP1) (protein)
chain: MALRDFCSVDGSDLFWEWNVTWNTSNPDFTKCFQNTVLVWVPCSYLWVCFPFYFLYLSHHDRGYIQMTHLNKAKTALGFLLWIVCWADLFYSFWERSMGKLLAPVFLVSPTLLGITMLLATFLIQIERRRGVQSSGIMLTFWLIALLCALAILRSKIMTALKEDARVDVFRDVTFYIYFSLVLIQLVLSCFSDRSPLFSETINDPNPCPESSASFLSRITFWWITGMMVQGYRQPLESTDLWSLNKEDTSEQVVPVLVKNWKKECAKSRKQPVKIVYSSKDPAKPKGSSKVDVNEEAEALIVKCPQKERDPSLFKVLYKTFGPYFLMSFLFKAVHDLMMFAGPEILKLLINFVNDKKAPEWQGYFYTALLFISACLQTLVLHQYFHICFVSGMRIKTAVIGAVYRKALVITNAARKSSTVGEIVNLMSVDAQRFMDLATYINMIWSAPLQVILALYLLWLNLGPSVLAGVAVMVLMVPLNAVMAMKTKTYQVAHMKSKDNRIKLMNEILNGIKVLKLYAWELAFKDKVLAIRQEELKVLKKSAYLAAVGTFTWVCTPFLVALSTFAVYVTVDENNILDAQKAFVSLALFNILRFPLNILPMVISSIVQASVSLKRLRVFLSHEDLDPDSIQRRPIKDAGATNSITVKNATFTWARNDPPTLHGITFSVPEGSLVAVVGQVGCGKSSLLSALLAEMDKVEGHVTVKGSVAYVPQQAWIQNISLRENILFGRQLQERYYKAVVEACALLPDLEILPSGDRTEIGEKGVNLSGGQKQRVSLARAVYCDSDVYLLDDPLSAVDAHVGKHIFENVIGPKGLLKNKTRLLVTHAISYLPQMDVIIVMSGGKISEMGSYQELLARDGAFAEFLRTYASAEQEQGQPEDGLAGVGGPGKEVKQMENGMLVTDTAGKQMQRQLSSSSSYSRDVSQHHTSTAELRKPGPTEETWKLVEADKAQTGQVKLSVYWDYMKAIGLFISFLSIFLFLCNHVASLVSNYWLSLWTDDPIVNGTQEHTQVRLSVYGALGISQGITVFGYSMAVSIGGIFASRRLHLDLLHNVLRSPISFFERTPSGNLVNRFSKELDTVDSMIPQVIKMFMGSLFNVIGACIIILLATPMAAVIIPPLGLIYFFVQRFYVASSRQLKRLESVSRSPVYSHFNETLLGVSVIRAFEEQERFIRQSDLKVDENQKAYYPSIVANRWLAVRLECVGNCIVLFASLFAVISRHSLSAGLVGLSVSYSLQVTTYLNWLVRMSSEMETNIVAVERLKEYSETEKEAPWQIQDMAPPKDWPQVGRVEFRDYGLRYREDLDLVLKHINVTIDGGEKVGIVGRTGAGKSSLTLGLFRIKESAEGEIIIDDINIAKIGLHDLRFKITIIPQDPVLFSGSLRMNLDPFSQYSDEEVWTSLELAHLKGFVSALPDKLNHECAEGGENLSVGQRQLVCLARALLRKTKILVLDEATAAVDLETDDLIQSTIRTQFDDCTVLTIAHRLNTIMDYTRVIVLDKGEIQEWGSPSDLLQQRGLFYSMAKDSGLV
On to B1, for which the results for the Ki in the experiment with CPI1 [1] and in the experiment with CPI1 [2] were 0.07 µM and 0.095 µM, respectively.
